Laboratory results from publication PMC12348683.

Target: T1, KwaB (O55) (Escherichia coli O55, UniProt P0DW46 1-315)
T1 sequence: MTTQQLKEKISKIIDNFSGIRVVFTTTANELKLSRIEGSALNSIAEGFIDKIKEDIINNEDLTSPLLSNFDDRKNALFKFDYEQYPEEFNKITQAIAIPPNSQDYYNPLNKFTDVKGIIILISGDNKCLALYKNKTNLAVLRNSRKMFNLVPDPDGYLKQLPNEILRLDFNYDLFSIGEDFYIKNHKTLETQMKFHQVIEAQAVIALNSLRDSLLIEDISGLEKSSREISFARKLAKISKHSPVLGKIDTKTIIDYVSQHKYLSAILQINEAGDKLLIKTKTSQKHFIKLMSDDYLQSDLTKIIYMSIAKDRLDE
Test: EMSA

B1: 72-bp dsDNA (dsDNA)
DNA 1: TGGTTTTTATATGTTTTGTTATGTATTGTTTATTTTCCCTTTAATTTTAGGATATGAAAACAAGAATTTATC
DNA 2: GATAAATTCTTGTTTTCATATCCTAAAATTAAAGGGAAAATAAACAATACATAACAAAACATATAAAAACCA
B1: binds.
